Experimental data as given in paper doi:10.1101/2025.11.17.688911, “Structure and mechanism of microtubule stabilization and motor regulation by MAP9” (bioRxiv, 2025).

Experiments:
[1] = molecular target: T1, surface-immobilized biotinylated microtubules (pig, UniProt Q2XVP4 1-451; Q767L7 1-444, biotin (site not stated) | biotin (site not stated)); test: cell-based or functional assay
[2] = molecular target: T1, surface-immobilized biotinylated …; test: TIRF microscopy, fluorescence intensity of GFP-tagged MAP on microtubules; biotinylated MTs held on a streptavidin-coated coverslip; MAP titrated in BRB80 (80 mM PIPES pH 6.8, 1 mM EGTA, 2 mM MgCl2; about 100 mM salt) with 1 mg/mL casein, 0.5% pluronic acid, no motors or ATP; intensity fit to the Langmuir isotherm; conditions: both partners purified

B1: full-length (FL) human MAP9 (GFP::Human MAP9::strepII) (natural protein, UniProt Q49MG5 1-647, looked up)
chain: MSDEVFSTTLAYTKSPKVTKRTTFQDELIRAITARSARQRSSEYSDDFDSDEIVSLGDFSDTSADENSVNKKMNDFHISDDEEKNPSKLLFLKTNKSNGNITKDEPVCAIKNEEEMAPDGCEDIVVKSFSESQNKDEEFEKDKIKMKPKPRILSIKSTSSAENNSLDTDDHFKPSPRPRSMLKKKSHMEEKDGLEDKETALSEELELHSAPSSLPTPNGIQLEAEKKAFSENLDPEDSCLTSLASSSLKQILGDSFSPGSEGNASGKDPNEEITENHNSLKSDENKENSFSADHVTTAVEKSKESQVTADDLEEEKAKAELIMDDDRTVDPLLSKSQSILISTSATASSKKTIEDRNIKNKKSTNNRASSASARLMTSEFLKKSSSKRRTPSTTTSSHYLGTLKVLDQKPSQKQSIEPDRADNIRAAVYQEWLEKKNVYLHEMHRIKRIESENLRIQNEQKKAAKREEALASFEAWKAMKEKEAKKIAAKKRLEEKNKKKTEEENAARKGEALQAFEKWKEKKMEYLKEKNRKEREYERAKKQKEEETVAEKKKDNLTAVEKWNEKKEAFFKQKEKEKINEKRKEELKRAEKKDKDKQAINEYEKWLENKEKQERIERKQKKRHSFLESEALPPWSPPSRTVFAKVF
notes: human MAP9, full length; also called FL MAP9; ASAP; source: E. coli Rosetta (DE3), purified (Strep-Tactin XT; for structural studies also heparin HP and Superdex 200); not shown: GFP, N-terminal, kept
depolymerization rate of MTs after removing free tubulin and GTP, with MAP9 kept in the chamber [1]: 6 fold
Kd [2]: 0.061 µM
